Where a chain is given by its changes, count along the chain named. Blank lines part the entries; values can stand above or below the binder they belong to.
Legend:
[1] = biological target: T1, human OX40 receptor, cell-expressed (DO11.10-hOX40) (human, UniProt P43489 29-277); assay: cell binding, DO11.10-hOX40 cells, soluble Fcab
T1 construct: also called CD134; TNFRSF4
T1 sequence: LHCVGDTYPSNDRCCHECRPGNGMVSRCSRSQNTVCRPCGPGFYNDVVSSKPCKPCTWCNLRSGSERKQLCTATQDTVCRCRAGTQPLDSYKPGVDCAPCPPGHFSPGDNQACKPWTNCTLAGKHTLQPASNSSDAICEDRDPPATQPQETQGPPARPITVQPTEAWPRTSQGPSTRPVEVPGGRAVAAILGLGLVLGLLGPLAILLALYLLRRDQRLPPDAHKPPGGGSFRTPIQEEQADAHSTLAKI

human TNFRII = biological target: T2, human TNFRII (human, UniProt P20333 23-257, limits assumed); assay: SPR (Biacore T200), receptor on CM5 chip
T2 construct: Amine-coupled to a CM5 chip
T2 sequence (looked up): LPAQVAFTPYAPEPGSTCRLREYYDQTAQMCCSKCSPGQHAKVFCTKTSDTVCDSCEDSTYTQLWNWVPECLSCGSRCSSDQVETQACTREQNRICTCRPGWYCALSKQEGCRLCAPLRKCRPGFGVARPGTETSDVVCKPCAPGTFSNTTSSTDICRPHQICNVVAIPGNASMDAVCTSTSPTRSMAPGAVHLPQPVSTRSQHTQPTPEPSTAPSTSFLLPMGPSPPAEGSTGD

human CD137 = biological target: T3, human CD137 (human, UniProt Q07011 24-186, limits assumed); assay: SPR (Biacore T200), receptor on CM5 chip
T3 construct: Amine-coupled to a CM5 chip; also called 4-1BB

human CD40 = biological target: T4, human CD40 (human, UniProt P25942 21-193, limits assumed); assay: SPR (Biacore T200), receptor on CM5 chip
T4 construct: Amine-coupled to a CM5 chip

human TNFRI = biological target: T5, human TNFRI (human, UniProt P19438 30-211, limits assumed); assay: SPR (Biacore T200), receptor on CM5 chip
T5 construct: Amine-coupled to a CM5 chip
T5 sequence (looked up): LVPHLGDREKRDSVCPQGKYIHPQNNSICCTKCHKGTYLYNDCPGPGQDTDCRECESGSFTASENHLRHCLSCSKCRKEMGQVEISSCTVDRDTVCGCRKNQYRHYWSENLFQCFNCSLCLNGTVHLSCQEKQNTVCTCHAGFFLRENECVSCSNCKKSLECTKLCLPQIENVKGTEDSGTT

human NGFR = biological target: T6, human NGFR (human, UniProt P08138 29-250, limits assumed); assay: SPR (Biacore T200), receptor on CM5 chip
T6 construct: Amine-coupled to a CM5 chip
T6 sequence (looked up): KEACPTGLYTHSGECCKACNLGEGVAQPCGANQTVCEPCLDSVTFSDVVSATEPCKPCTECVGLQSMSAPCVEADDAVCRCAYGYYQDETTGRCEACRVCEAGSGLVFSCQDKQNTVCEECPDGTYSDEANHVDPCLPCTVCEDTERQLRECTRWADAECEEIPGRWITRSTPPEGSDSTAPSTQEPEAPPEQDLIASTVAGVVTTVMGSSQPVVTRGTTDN

T4 sequence (P25942 21-193 limits assumed): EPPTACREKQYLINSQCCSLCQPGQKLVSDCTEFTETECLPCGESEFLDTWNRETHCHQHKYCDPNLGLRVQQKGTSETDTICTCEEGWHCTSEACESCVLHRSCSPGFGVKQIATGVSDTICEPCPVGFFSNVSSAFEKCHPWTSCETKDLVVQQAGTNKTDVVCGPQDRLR

binding result [1]: binds
B1: Fcab FS20-22 (designed binder)
chain: TCPPCPAPELLGGPSVFLFPPKPKDTLMISRTPEVTCVVVDVSHEDPEVKFNWYVDGVEVHNAKTKPREEQYNSTYRVVSVLTVLHQDWLNGKEYKCKVSNKALPAPIEKTISKAKGQPREPQVYTLPPSRDEYWDQEVSLTCLVKGFYPSDIAVEWESNGQPENNYKTTPPVLDSDGSFFLYSKLTVDQYRWNPGGYFSCSVMHEALHNHYTQKSLSLSPG
notes: Soluble Fcab

binding result [1]: binds
B2: Fcab FS20-31 (designed binder)
chain: TCPPCPAPELLGGPSVFLFPPKPKDTLMISRTPEVTCVVVDVSHEDPEVKFNWYVDGVEVHNAKTKPREEQYNSTYRVVSVLTVLHQDWLNGKEYKCKVSNKALPAPIEKTISKAKGQPREPQVYTLPPSRDEYYSGEVSLTCLVKGFYPSDIAVEWESNGQPENDYKTTPPVLDSDGSFFLYSKLTVPYWRWGGPGTFSCSVMHEALHNHYTQKSLSLSPG
notes: Soluble Fcab

binding result (human TNFRII): no binding (tested: 1 µM)
binding result (human CD137): no binding (tested: 1 µM)
binding result (human CD40): no binding (tested: 1 µM)
binding result (human TNFRI): no binding (tested: 1 µM)
binding result (human NGFR): no binding (tested: 1 µM)
B3: FS20-11-134AA/4420 (bispecific antibody, human IgG1, kappa, L234A L235A)
heavy: EVKLDETGGGLVQPGRPMKLSCVASGFTFSDYWMNWVRQSPEKGLEWVAQIRNKPYNYETYYSDSVKGRFTISRDDSKSSVYLQMNNLRVEDMGIYYCTGSYYGMDYWGQGTSVTVSSASTKGPSVFPLAPSSKSTSGGTAALGCLVKDYFPEPVTVSWNSGALTSGVHTFPAVLQSSGLYSLSSVVTVPSSSLGTQTYICNVNHKPSNTKVDKKVEPKSCDKTHTCPPCPAPEAAGGPSVFLFPPKPKDTLMISRTPEVTCVVVDVSHEDPEVKFNWYVDGVEVHNAKTKPREEQYNSTYRVVSVLTVLHQDWLNGKEYKCKVSNKALPAPIEKTISKAKGQPREPQVYTLPPSREEDDNDVSLTCLVKGFYPSDIAVEWESNGIPIGPYKTTPPVLDSDGSFFLYSKLTVDKSRWWKHYVEEHPFLCSVMHEALHNHYTQKSLSLSPG
light: DVVMTQTPLSLPVSLGDQASISCRSSQSLVHSNGNTYLRWYLQKPGQSPKVLIYKVSNRFSGVPDRFSGSGSGTDFTLKISRVEAEDLGVYFCSQSTHVPWTFGGGTKLEIKRTVAAPSVFIFPPSDEQLKSGTASVVCLLNNFYPREAKVQWKVDNALQSGNSQESVTEQDSKDSTYSLSSTLTLSKADYEKHKVYACEVTHQGLSSPVTKSFNRGEC
notes: Human IgG1 with anti-FITC 4420 Fab and LALA; The OX40 site is in the CH3 domain; also called FS20-11-134 Fcab in mock (4420 LALA) mAb^2 format

binding result (human TNFRII): no binding (tested: 1 µM)
binding result (human CD137): no binding (tested: 1 µM)
binding result (human CD40): no binding (tested: 1 µM)
binding result (human TNFRI): no binding (tested: 1 µM)
binding result (human NGFR): no binding (tested: 1 µM)
B4: FS20-31-102AA/4420 (bispecific antibody, human IgG1, kappa, L234A L235A)
heavy: EVKLDETGGGLVQPGRPMKLSCVASGFTFSDYWMNWVRQSPEKGLEWVAQIRNKPYNYETYYSDSVKGRFTISRDDSKSSVYLQMNNLRVEDMGIYYCTGSYYGMDYWGQGTSVTVSSASTKGPSVFPLAPSSKSTSGGTAALGCLVKDYFPEPVTVSWNSGALTSGVHTFPAVLQSSGLYSLSSVVTVPSSSLGTQTYICNVNHKPSNTKVDKKVEPKSCDKTHTCPPCPAPEAAGGPSVFLFPPKPKDTLMISRTPEVTCVVVDVSHEDPEVKFNWYVDGVEVHNAKTKPREEQYNSTYRVVSVLTVLHQDWLNGKEYKCKVSNKALPAPIEKTISKAKGQPREPQVYTLPPSRDEWASGEVSLTCLVKGFYPSDIAVEWESNGQPEVDYKTTPPVLDSDGSFFLYSKLTVPYWRWGVPRTFSCSVMHEALHNHYTQKSLSLSPG
light: B3 light
notes: Human IgG1 with anti-FITC 4420 Fab and LALA; The OX40 site is in the CH3 domain; also called FS20-31-102 Fcab in mock (4420 LALA) mAb^2 format

binding result (human TNFRII): no binding (tested: 1 µM)
binding result (human CD137): no binding (tested: 1 µM)
binding result (human CD40): no binding (tested: 1 µM)
binding result (human TNFRI): no binding (tested: 1 µM)
binding result (human NGFR): no binding (tested: 1 µM)
B5: FS20-22-41AA/4420 (bispecific antibody, human IgG1, kappa, L234A L235A)
heavy: EVKLDETGGGLVQPGRPMKLSCVASGFTFSDYWMNWVRQSPEKGLEWVAQIRNKPYNYETYYSDSVKGRFTISRDDSKSSVYLQMNNLRVEDMGIYYCTGSYYGMDYWGQGTSVTVSSASTKGPSVFPLAPSSKSTSGGTAALGCLVKDYFPEPVTVSWNSGALTSGVHTFPAVLQSSGLYSLSSVVTVPSSSLGTQTYICNVNHKPSNTKVDKKVEPKSCDKTHTCPPCPAPEAAGGPSVFLFPPKPKDTLMISRTPEVTCVVVDVSHEDPEVKFNWYVDGVEVHNAKTKPREEQYNSTYRVVSVLTVLHQDWLNGKEYKCKVSNKALPAPIEKTISKAKGQPREPQVYTLPPSRDEYWDQEVSLTCLVKGFYPSDIAVEWESNGDEQFAYKTTPPVLDSDGSFFLYSKLTVDQYRWNPGDYFSCSVMHEALHNHYTQKSLSLSPG
light: B3 light
notes: Human IgG1 with anti-FITC 4420 Fab and LALA; The OX40 site is in the CH3 domain; also called FS20-22-41 Fcab in mock (4420 LALA) mAb^2 format

binding result (human TNFRII): no binding (tested: 1 µM)
binding result (human CD137): no binding (tested: 1 µM)
binding result (human CD40): no binding (tested: 1 µM)
binding result (human TNFRI): no binding (tested: 1 µM)
binding result (human NGFR): no binding (tested: 1 µM)
B6: FS20-31-94AA/4420 (bispecific antibody, human IgG1, kappa, L234A L235A)
heavy: B4 heavy with A360E, S361H, Q387I, P388R, V390H, V420G, R422G
light: B3 light
notes: Human IgG1 with anti-FITC 4420 Fab and LALA; also called FS20-31-94 Fcab in mock (4420 LALA) mAb^2 format

binding result (human TNFRII): no binding (tested: 1 µM)
binding result (human CD137): no binding (tested: 1 µM)
binding result (human CD40): no binding (tested: 1 µM)
binding result (human TNFRI): no binding (tested: 1 µM)
binding result (human NGFR): no binding (tested: 1 µM)
B7: FS20-11-131AA/4420 (bispecific antibody, human IgG1, kappa, L234A L235A)
heavy: B3 heavy with S415N, E423D
light: B3 light
notes: Human IgG1 with anti-FITC 4420 Fab and LALA; The OX40 site is in the CH3 domain; also called FS20-11-131 Fcab in mock (4420 LALA) mAb^2 format

From patent US20250361312A1 (INVOX PHARMA, published 2025)
